Where two headings read alike, the source gives them in different places.
Experiments:
[1] = biological target: T1, MCR1 from 293T (co-expressed with GST-core RAG2);GST-core RAG2 (mouse?;mouse?, UniProt P15919;P21784 384-1008;1-387, |); assay: EMSA
T1 sequence 1: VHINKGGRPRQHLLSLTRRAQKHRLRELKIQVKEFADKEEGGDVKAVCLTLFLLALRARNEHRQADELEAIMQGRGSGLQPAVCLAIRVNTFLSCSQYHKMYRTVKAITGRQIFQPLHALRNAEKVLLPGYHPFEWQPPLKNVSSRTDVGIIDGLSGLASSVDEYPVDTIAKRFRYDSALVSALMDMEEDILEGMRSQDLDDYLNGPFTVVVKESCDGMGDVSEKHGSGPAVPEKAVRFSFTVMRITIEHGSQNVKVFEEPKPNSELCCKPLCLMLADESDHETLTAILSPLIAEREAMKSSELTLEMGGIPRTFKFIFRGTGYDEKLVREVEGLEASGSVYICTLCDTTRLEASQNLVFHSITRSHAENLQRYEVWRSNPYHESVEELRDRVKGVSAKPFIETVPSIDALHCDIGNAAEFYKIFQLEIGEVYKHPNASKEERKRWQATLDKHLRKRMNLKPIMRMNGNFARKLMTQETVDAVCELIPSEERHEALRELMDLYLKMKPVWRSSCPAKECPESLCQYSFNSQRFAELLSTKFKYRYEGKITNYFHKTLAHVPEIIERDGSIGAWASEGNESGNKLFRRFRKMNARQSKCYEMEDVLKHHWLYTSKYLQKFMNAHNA
T1 sequence 2: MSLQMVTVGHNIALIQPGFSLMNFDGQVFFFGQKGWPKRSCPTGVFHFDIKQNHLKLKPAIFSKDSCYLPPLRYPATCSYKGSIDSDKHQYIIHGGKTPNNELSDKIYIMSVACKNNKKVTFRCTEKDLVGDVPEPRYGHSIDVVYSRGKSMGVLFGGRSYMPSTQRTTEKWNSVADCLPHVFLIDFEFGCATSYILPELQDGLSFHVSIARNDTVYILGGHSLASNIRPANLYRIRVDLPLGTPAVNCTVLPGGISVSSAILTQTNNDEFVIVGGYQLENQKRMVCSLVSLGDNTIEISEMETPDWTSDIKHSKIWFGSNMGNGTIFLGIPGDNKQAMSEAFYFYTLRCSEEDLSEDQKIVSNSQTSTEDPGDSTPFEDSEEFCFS

[2] = biological target: T2, MCR1 (MBP-core RAG1) (UniProt P15919 384-1008); assay: EMSA
T2 sequence: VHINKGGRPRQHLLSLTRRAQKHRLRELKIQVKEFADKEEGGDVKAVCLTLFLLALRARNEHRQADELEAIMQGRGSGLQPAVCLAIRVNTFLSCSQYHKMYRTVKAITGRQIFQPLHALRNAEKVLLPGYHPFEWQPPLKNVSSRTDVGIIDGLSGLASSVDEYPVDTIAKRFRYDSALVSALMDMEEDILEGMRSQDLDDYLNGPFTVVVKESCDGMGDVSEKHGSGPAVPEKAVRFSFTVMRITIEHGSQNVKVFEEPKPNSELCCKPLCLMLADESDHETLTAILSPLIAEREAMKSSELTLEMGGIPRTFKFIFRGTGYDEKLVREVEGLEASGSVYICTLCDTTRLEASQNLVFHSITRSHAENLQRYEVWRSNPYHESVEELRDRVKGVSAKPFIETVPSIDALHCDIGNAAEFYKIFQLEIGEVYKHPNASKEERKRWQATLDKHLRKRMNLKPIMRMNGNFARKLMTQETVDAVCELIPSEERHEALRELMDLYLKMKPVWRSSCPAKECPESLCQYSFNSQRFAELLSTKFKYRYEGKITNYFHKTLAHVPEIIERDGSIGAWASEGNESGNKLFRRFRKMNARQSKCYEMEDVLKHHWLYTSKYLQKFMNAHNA

[3] = biological target: T3, MCR1 (MBP-core RAG1);GST-core RAG2 (mouse?;mouse?, UniProt P15919;P21784 384-1008;1-387, |); assay: EMSA
T3 sequence 1: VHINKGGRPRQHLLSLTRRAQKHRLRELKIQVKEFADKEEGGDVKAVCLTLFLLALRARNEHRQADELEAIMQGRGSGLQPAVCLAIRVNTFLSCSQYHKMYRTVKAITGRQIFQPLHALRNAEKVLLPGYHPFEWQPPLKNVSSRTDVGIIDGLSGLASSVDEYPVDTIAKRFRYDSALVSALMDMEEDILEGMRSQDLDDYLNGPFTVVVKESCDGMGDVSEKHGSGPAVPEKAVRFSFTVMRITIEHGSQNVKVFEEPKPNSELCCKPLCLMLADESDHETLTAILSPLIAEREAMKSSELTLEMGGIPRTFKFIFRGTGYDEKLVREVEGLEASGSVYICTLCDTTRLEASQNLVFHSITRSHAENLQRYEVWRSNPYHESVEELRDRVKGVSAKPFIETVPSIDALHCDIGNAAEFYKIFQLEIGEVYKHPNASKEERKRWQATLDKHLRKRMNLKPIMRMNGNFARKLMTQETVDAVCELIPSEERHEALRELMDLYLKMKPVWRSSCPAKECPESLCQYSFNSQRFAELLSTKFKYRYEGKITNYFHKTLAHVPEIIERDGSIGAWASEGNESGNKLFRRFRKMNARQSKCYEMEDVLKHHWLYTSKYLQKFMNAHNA
T3 sequence 2: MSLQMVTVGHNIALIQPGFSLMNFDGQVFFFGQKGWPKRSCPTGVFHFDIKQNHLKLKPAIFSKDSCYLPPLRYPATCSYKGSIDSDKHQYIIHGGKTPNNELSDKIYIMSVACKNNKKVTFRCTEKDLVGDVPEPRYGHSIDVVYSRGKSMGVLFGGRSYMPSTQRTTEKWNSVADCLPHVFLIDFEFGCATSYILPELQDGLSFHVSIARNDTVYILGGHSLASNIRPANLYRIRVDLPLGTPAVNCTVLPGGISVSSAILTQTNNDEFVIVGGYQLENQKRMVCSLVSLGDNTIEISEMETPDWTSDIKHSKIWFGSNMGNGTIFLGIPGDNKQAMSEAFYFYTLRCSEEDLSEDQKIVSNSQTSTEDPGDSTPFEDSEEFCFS

[4] = biological target: T1, MCR1 from 293T (co-expressed with …); assay: EMSA; remark: listed apart in the source
[5] = biological target: T2, MCR1 (MBP-core RAG1); assay: fluorescence anisotropy
[6] = biological target: T2, MCR1 (MBP-core RAG1); assay: fluorescence anisotropy; remark: listed apart in the source
[7] = biological target: T2, MCR1 (MBP-core RAG1); assay: competition
[8] = biological target: T3, MCR1 (MBP-core RAG1);GST-core RAG2; assay: EMSA; remark: listed apart in the source
[9] = biological target: T1, MCR1 from 293T (co-expressed with …); assay: EMSA; remark: listed apart in the source
[10] = biological target: T2, MCR1 (MBP-core RAG1); assay: EMSA; remark: listed apart in the source
[11] = biological target: T2, MCR1 (MBP-core RAG1); assay: fluorescence anisotropy; remark: listed apart in the source

B1: WT 12-RSS (dsDNA)
DNA 1: GATATGGCTCGTCTTACACAGTGATATAGACCTTAACAAAAACCTCCAATCGAGCGGAG
DNA 2: CTCCGCTCGATTGGAGGTTTTTGTTAAGGTCTATATCACTGTGTAAGACGAGCCATATC
Kd [1]: 25 ± 5 nM | Kd [2]: 114 ± 5 nM | Kd [3]: 87 ± 10 nM | Kd [4]: 32 ± 5 nM

B2: Oregon Green WT 12-RSS (dsDNA)
DNA 1: GATATGGCTCGTCTTACACAGTGATATAGACCTTAACAAAAACCTCCAATCGAGCGGAG
DNA 2: CTCCGCTCGATTGGAGGTTTTTGTTAAGGTCTATATCACTGTGTAAGACGAGCCATATC
Kd [5]: 27 ± 9 nM | Kd [6]: 123 nM

B3: unlabeled WT 12-RSS competitor (dsDNA)
DNA 1: GATATGGCTCGTCTTACACAGTGATATAGACCTTAACAAAAACCTCCAATCGAGCGGAG
DNA 2: CTCCGCTCGATTGGAGGTTTTTGTTAAGGTCTATATCACTGTGTAAGACGAGCCATATC
IC50 [7]: 150 nM

B4: MHMN (mutant heptamer, mutant nonamer) (dsDNA)
DNA 1: GATATGGCTCGTCTTAGAGAAGCATATAGACCTTAAGGCTCTGATCCAATCGAGCGGAG
DNA 2: CTCCGCTCGATTGGATCAGAGCCTTAAGGTCTATATGCTTCTCTAAGACGAGCCATATC
binding result [8]: no binding | binding result [9]: no binding | Kd [10]: 123 ± 7 nM

B5: Oregon Green MHMN (dsDNA)
DNA 1: GATATGGCTCGTCTTAGAGAAGCATATAGACCTTAAGGCTCTGATCCAATCGAGCGGAG
DNA 2: CTCCGCTCGATTGGATCAGAGCCTTAAGGTCTATATGCTTCTCTAAGACGAGCCATATC
Kd [11]: 28 ± 8 nM

— PMC2659343
